According to patent US20210171596A1 (published 2021):

T1: IL10R1-Fc (human, UniProt Q13651 22-235)
T1 chain: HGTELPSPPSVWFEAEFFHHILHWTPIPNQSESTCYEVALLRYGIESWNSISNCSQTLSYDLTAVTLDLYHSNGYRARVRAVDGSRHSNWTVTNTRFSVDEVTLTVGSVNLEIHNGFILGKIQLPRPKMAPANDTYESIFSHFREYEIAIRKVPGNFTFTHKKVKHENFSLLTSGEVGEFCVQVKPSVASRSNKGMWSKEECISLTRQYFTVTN


Biological target: T1, IL10R1-Fc
Assay: BLI

Row | Binder | Kd
1 | XENP14246 (WT) (protein) chain 1: EPKSSDKTHTCPPCPAPPVAGPSVFLFPPKPKDTLMISRTPEVTCVVVDVKHEDPEVKFNWYVDGVEVHNAKTKPREEEYNSTYRVVSVLTVLHQDWLNGKEYKCKVSNKALPAPIEKTISKAKGQPREPQVYTLPPSREEMTKNQVSLTCDVSGFYPSDIAVEWESDGQPENNYKTTPPVLDSDGSFFLYSKLTVDKSRWEQGDVFSCSVMHEALHNHYTQKSLSLSPGK chain 2: SPGQGTQSENSCTHFPGNLPNMLRDLRDAFSRVKTFFQMKDQLDNLLLKESLLEDFKGYLGCQALSEMIQFYLEEVMPQAENQDPDIKAHVNSLGENLKTLRLRLRRCHRFLPCENGGGSGGKSKAVEQVKNAFNKLQEKGIYKAMSEFDIFINYIEAYMTMKIRNEPKSSDKTHTCPPCPAPPVAGPSVFLFPPKPKDTLMISRTPEVTCVVVDVKHEDPEVKFNWYVDGVEVHNAKTKPREEQYNSTYRVVSVLTVLHQDWLNGKEYKCKVSNKALPAPIEKTISKAKGQPREPQVYTLPPSREQMTKNQVKLTCLVKGFYPSDIAVEWESNGQPENNYKTTPPVLDSDGSFFLYSKLTVDKSRWQQGNVFSCSVMHEALHNHYTQKSLSLSPGK | 5.05 nM
2 | XENP25753 (N21D) (protein) chain 1: EPKSSDKTHTCPPCPAPPVAGPSVFLFPPKPKDTLMISRTPEVTCVVVDVKHEDPEVKFNWYVDGVEVHNAKTKPREEEYNSTYRVVSVLTVLHQDWLNGKEYKCKVSNKALPAPIEKTISKAKGQPREPQVYTLPPSREEMTKNQVSLTCDVSGFYPSDIAVEWESDGQPENNYKTTPPVLDSDGSFFLYSKLTVDKSRWEQGDVFSCSVMHEALHNHYTQKSLSLSPGK chain 2: SPGQGTQSENSCTHFPGNLPDMLRDLRDAFSRVKTFFQMKDQLDNLLLKESLLEDFKGYLGCQALSEMIQFYLEEVMPQAENQDPDIKAHVNSLGENLKTLRLRLRRCHRFLPCENGGGSGGKSKAVEQVKNAFNKLQEKGIYKAMSEFDIFINYIEAYMTMKIRNEPKSSDKTHTCPPCPAPPVAGPSVFLFPPKPKDTLMISRTPEVTCVVVDVKHEDPEVKFNWYVDGVEVHNAKTKPREEQYNSTYRVVSVLTVLHQDWLNGKEYKCKVSNKALPAPIEKTISKAKGQPREPQVYTLPPSREQMTKNQVKLTCLVKGFYPSDIAVEWESNGQPENNYKTTPPVLDSDGSFFLYSKLTVDKSRWQQGNVFSCSVMHEALHNHYTQKSLSLSPGK | 8.14 nM
3 | XENP25760 (D44N) (protein) chain 1: EPKSSDKTHTCPPCPAPPVAGPSVFLFPPKPKDTLMISRTPEVTCVVVDVKHEDPEVKFNWYVDGVEVHNAKTKPREEEYNSTYRVVSVLTVLHQDWLNGKEYKCKVSNKALPAPIEKTISKAKGQPREPQVYTLPPSREEMTKNQVSLTCDVSGFYPSDIAVEWESDGQPENNYKTTPPVLDSDGSFFLYSKLTVDKSRWEQGDVFSCSVMHEALHNHYTQKSLSLSPGK chain 2: SPGQGTQSENSCTHFPGNLPNMLRDLRDAFSRVKTFFQMKDQLNNLLLKESLLEDFKGYLGCQALSEMIQFYLEEVMPQAENQDPDIKAHVNSLGENLKTLRLRLRRCHRFLPCENGGGSGGKSKAVEQVKNAFNKLQEKGIYKAMSEFDIFINYIEAYMTMKIRNEPKSSDKTHTCPPCPAPPVAGPSVFLFPPKPKDTLMISRTPEVTCVVVDVKHEDPEVKFNWYVDGVEVHNAKTKPREEQYNSTYRVVSVLTVLHQDWLNGKEYKCKVSNKALPAPIEKTISKAKGQPREPQVYTLPPSREQMTKNQVKLTCLVKGFYPSDIAVEWESNGQPENNYKTTPPVLDSDGSFFLYSKLTVDKSRWQQGNVFSCSVMHEALHNHYTQKSLSLSPGK | 1.23 nM
4 | XENP25758 (Q42E) (protein) chain 1: EPKSSDKTHTCPPCPAPPVAGPSVFLFPPKPKDTLMISRTPEVTCVVVDVKHEDPEVKFNWYVDGVEVHNAKTKPREEEYNSTYRVVSVLTVLHQDWLNGKEYKCKVSNKALPAPIEKTISKAKGQPREPQVYTLPPSREEMTKNQVSLTCDVSGFYPSDIAVEWESDGQPENNYKTTPPVLDSDGSFFLYSKLTVDKSRWEQGDVFSCSVMHEALHNHYTQKSLSLSPGK chain 2: SPGQGTQSENSCTHFPGNLPNMLRDLRDAFSRVKTFFQMKDELDNLLLKESLLEDFKGYLGCQALSEMIQFYLEEVMPQAENQDPDIKAHVNSLGENLKTLRLRLRRCHRFLPCENGGGSGGKSKAVEQVKNAFNKLQEKGIYKAMSEFDIFINYIEAYMTMKIRNEPKSSDKTHTCPPCPAPPVAGPSVFLFPPKPKDTLMISRTPEVTCVVVDVKHEDPEVKFNWYVDGVEVHNAKTKPREEQYNSTYRVVSVLTVLHQDWLNGKEYKCKVSNKALPAPIEKTISKAKGQPREPQVYTLPPSREQMTKNQVKLTCLVKGFYPSDIAVEWESNGQPENNYKTTPPVLDSDGSFFLYSKLTVDKSRWQQGNVFSCSVMHEALHNHYTQKSLSLSPGK | 7.3 nM
5 | XENP25763 (I87A) (protein) chain 1: EPKSSDKTHTCPPCPAPPVAGPSVFLFPPKPKDTLMISRTPEVTCVVVDVKHEDPEVKFNWYVDGVEVHNAKTKPREEEYNSTYRVVSVLTVLHQDWLNGKEYKCKVSNKALPAPIEKTISKAKGQPREPQVYTLPPSREEMTKNQVSLTCDVSGFYPSDIAVEWESDGQPENNYKTTPPVLDSDGSFFLYSKLTVDKSRWEQGDVFSCSVMHEALHNHYTQKSLSLSPGK chain 2: SPGQGTQSENSCTHFPGNLPNMLRDLRDAFSRVKTFFQMKDQLDNLLLKESLLEDFKGYLGCQALSEMIQFYLEEVMPQAENQDPDAKAHVNSLGENLKTLRLRLRRCHRFLPCENGGGSGGKSKAVEQVKNAFNKLQEKGIYKAMSEFDIFINYIEAYMTMKIRNEPKSSDKTHTCPPCPAPPVAGPSVFLFPPKPKDTLMISRTPEVTCVVVDVKHEDPEVKFNWYVDGVEVHNAKTKPREEQYNSTYRVVSVLTVLHQDWLNGKEYKCKVSNKALPAPIEKTISKAKGQPREPQVYTLPPSREQMTKNQVKLTCLVKGFYPSDIAVEWESNGQPENNYKTTPPVLDSDGSFFLYSKLTVDKSRWQQGNVFSCSVMHEALHNHYTQKSLSLSPGK | 14.4 nM
6 | XENP25756 (M39T) (protein) chain 1: EPKSSDKTHTCPPCPAPPVAGPSVFLFPPKPKDTLMISRTPEVTCVVVDVKHEDPEVKFNWYVDGVEVHNAKTKPREEEYNSTYRVVSVLTVLHQDWLNGKEYKCKVSNKALPAPIEKTISKAKGQPREPQVYTLPPSREEMTKNQVSLTCDVSGFYPSDIAVEWESDGQPENNYKTTPPVLDSDGSFFLYSKLTVDKSRWEQGDVFSCSVMHEALHNHYTQKSLSLSPGK chain 2: SPGQGTQSENSCTHFPGNLPNMLRDLRDAFSRVKTFFQTKDQLDNLLLKESLLEDFKGYLGCQALSEMIQFYLEEVMPQAENQDPDIKAHVNSLGENLKTLRLRLRRCHRFLPCENGGGSGGKSKAVEQVKNAFNKLQEKGIYKAMSEFDIFINYIEAYMTMKIRNEPKSSDKTHTCPPCPAPPVAGPSVFLFPPKPKDTLMISRTPEVTCVVVDVKHEDPEVKFNWYVDGVEVHNAKTKPREEQYNSTYRVVSVLTVLHQDWLNGKEYKCKVSNKALPAPIEKTISKAKGQPREPQVYTLPPSREQMTKNQVKLTCLVKGFYPSDIAVEWESNGQPENNYKTTPPVLDSDGSFFLYSKLTVDKSRWQQGNVFSCSVMHEALHNHYTQKSLSLSPGK | 4.76 nM
7 | XENP25761 (N45D) (protein) chain 1: EPKSSDKTHTCPPCPAPPVAGPSVFLFPPKPKDTLMISRTPEVTCVVVDVKHEDPEVKFNWYVDGVEVHNAKTKPREEEYNSTYRVVSVLTVLHQDWLNGKEYKCKVSNKALPAPIEKTISKAKGQPREPQVYTLPPSREEMTKNQVSLTCDVSGFYPSDIAVEWESDGQPENNYKTTPPVLDSDGSFFLYSKLTVDKSRWEQGDVFSCSVMHEALHNHYTQKSLSLSPGK chain 2: SPGQGTQSENSCTHFPGNLPNMLRDLRDAFSRVKTFFQMKDQLDDLLLKESLLEDFKGYLGCQALSEMIQFYLEEVMPQAENQDPDIKAHVNSLGENLKTLRLRLRRCHRFLPCENGGGSGGKSKAVEQVKNAFNKLQEKGIYKAMSEFDIFINYIEAYMTMKIRNEPKSSDKTHTCPPCPAPPVAGPSVFLFPPKPKDTLMISRTPEVTCVVVDVKHEDPEVKFNWYVDGVEVHNAKTKPREEQYNSTYRVVSVLTVLHQDWLNGKEYKCKVSNKALPAPIEKTISKAKGQPREPQVYTLPPSREQMTKNQVKLTCLVKGFYPSDIAVEWESNGQPENNYKTTPPVLDSDGSFFLYSKLTVDKSRWQQGNVFSCSVMHEALHNHYTQKSLSLSPGK | 10.6 nM
8 | XENP25759 (L43V) (protein) chain 1: EPKSSDKTHTCPPCPAPPVAGPSVFLFPPKPKDTLMISRTPEVTCVVVDVKHEDPEVKFNWYVDGVEVHNAKTKPREEEYNSTYRVVSVLTVLHQDWLNGKEYKCKVSNKALPAPIEKTISKAKGQPREPQVYTLPPSREEMTKNQVSLTCDVSGFYPSDIAVEWESDGQPENNYKTTPPVLDSDGSFFLYSKLTVDKSRWEQGDVFSCSVMHEALHNHYTQKSLSLSPGK chain 2: SPGQGTQSENSCTHFPGNLPNMLRDLRDAFSRVKTFFQMKDQVDNLLLKESLLEDFKGYLGCQALSEMIQFYLEEVMPQAENQDPDIKAHVNSLGENLKTLRLRLRRCHRFLPCENGGGSGGKSKAVEQVKNAFNKLQEKGIYKAMSEFDIFINYIEAYMTMKIRNEPKSSDKTHTCPPCPAPPVAGPSVFLFPPKPKDTLMISRTPEVTCVVVDVKHEDPEVKFNWYVDGVEVHNAKTKPREEQYNSTYRVVSVLTVLHQDWLNGKEYKCKVSNKALPAPIEKTISKAKGQPREPQVYTLPPSREQMTKNQVKLTCLVKGFYPSDIAVEWESNGQPENNYKTTPPVLDSDGSFFLYSKLTVDKSRWQQGNVFSCSVMHEALHNHYTQKSLSLSPGK | 16.4 nM
9 | XENP25754 (D28N) (protein) chain 1: EPKSSDKTHTCPPCPAPPVAGPSVFLFPPKPKDTLMISRTPEVTCVVVDVKHEDPEVKFNWYVDGVEVHNAKTKPREEEYNSTYRVVSVLTVLHQDWLNGKEYKCKVSNKALPAPIEKTISKAKGQPREPQVYTLPPSREEMTKNQVSLTCDVSGFYPSDIAVEWESDGQPENNYKTTPPVLDSDGSFFLYSKLTVDKSRWEQGDVFSCSVMHEALHNHYTQKSLSLSPGK chain 2: SPGQGTQSENSCTHFPGNLPNMLRDLRNAFSRVKTFFQMKDQLDNLLLKESLLEDFKGYLGCQALSEMIQFYLEEVMPQAENQDPDIKAHVNSLGENLKTLRLRLRRCHRFLPCENGGGSGGKSKAVEQVKNAFNKLQEKGIYKAMSEFDIFINYIEAYMTMKIRNEPKSSDKTHTCPPCPAPPVAGPSVFLFPPKPKDTLMISRTPEVTCVVVDVKHEDPEVKFNWYVDGVEVHNAKTKPREEQYNSTYRVVSVLTVLHQDWLNGKEYKCKVSNKALPAPIEKTISKAKGQPREPQVYTLPPSREQMTKNQVKLTCLVKGFYPSDIAVEWESNGQPENNYKTTPPVLDSDGSFFLYSKLTVDKSRWQQGNVFSCSVMHEALHNHYTQKSLSLSPGK | 3.86 nM
